The numbers were not newly measured in article PMC8592953, which cites them from elsewhere.

Where two headings read alike, the source gives them in different places.

In data set [1] the target is RAGE (soluble) soluble (Homo sapiens) (UniProt Q15109).
Data set [2] has the same target. This is another data set of the same source.

UniProt Q15109, sequence (Q15109 23-342): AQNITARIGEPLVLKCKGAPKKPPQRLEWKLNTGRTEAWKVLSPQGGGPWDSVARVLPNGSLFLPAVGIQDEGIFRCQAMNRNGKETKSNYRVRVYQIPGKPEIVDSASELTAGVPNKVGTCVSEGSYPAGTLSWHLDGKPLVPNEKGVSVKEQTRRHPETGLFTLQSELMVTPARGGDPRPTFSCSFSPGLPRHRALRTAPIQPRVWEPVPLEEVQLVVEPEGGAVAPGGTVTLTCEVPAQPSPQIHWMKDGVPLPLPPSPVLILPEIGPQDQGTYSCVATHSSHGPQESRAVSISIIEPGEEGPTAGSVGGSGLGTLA

For the substance “AGE-modified bovine serum albumin (BSA-AGE) (from UniProt P02769)”, in data set [1], the Kd is 1000 nM.
For “glyoxylic acid-glycated bovine serum albumin (from UniProt P02769)”, in data set [2], the Kd is 100 nM.
